The target of assay [1] is H7 HA of A/Netherlands/219/2003, soluble trimer (Influenza A virus …, UniProt Q6VMK1, strain). As to the kind of experiment: ELISA. On the technique in general: ELISA stands for enzyme-linked immunosorbent assay.
The target of assay [2] is H5 HA of A/Indonesia/5/2005 (Influenza A virus A/Indonesia/5/2005 …, UniProt A5A5L7, strain). Put plainly: ELISA.

B1: rFluA-20 IgG (recombinant FluA-20 IgG) (antibody, V domains shown)
VH: QVQLEESGPGLVKPSETLSLTCSVSGVSVTSDIYYWTWIRQPPGKGLEWIGYIFYNGDTNYNPSLKSRVTMSIDTSKNEFSLRLTSVTAADTAVYFCARGTEDLGYCSSGSCPNHWGQGTLVTVSS
VL: DIVMTQSPSSLSASIGDRVTITCRPSQNIRSFLNWFQHKPGKAPKLLIYAASNLQSGVPSRFSGSGSGTEFTLTIRSLQPEDFATYYCQQSYNTPPTFGQGTKVEIK
For B1, in assay [1], the binding result is “binds”.

B2: rFluA-20 IgG Y49A (L) (antibody, V domains shown)
VH: QVQLEESGPGLVKPSETLSLTCSVSGVSVTSDIYYWTWIRQPPGKGLEWIGYIFYNGDTNYNPSLKSRVTMSIDTSKNEFSLRLTSVTAADTAVYFCARGTEDLGYCSSGSCPNHWGQGTLVTVSS
VL: DIVMTQSPSSLSASIGDRVTITCRPSQNIRSFLNWFQHKPGKAPKLLIAAASNLQSGVPSRFSGSGSGTEFTLTIRSLQPEDFATYYCQQSYNTPPTFGQGTKVEIK
Turning to B2, in assay [2], the binding result is given as “no binding (tested: 10 μg/mL)”.

B3: rFluA-20 IgG D98A (H) (antibody, V domains shown)
VH: QVQLEESGPGLVKPSETLSLTCSVSGVSVTSDIYYWTWIRQPPGKGLEWIGYIFYNGDTNYNPSLKSRVTMSIDTSKNEFSLRLTSVTAADTAVYFCARGTEALGYCSSGSCPNHWGQGTLVTVSS
VL: DIVMTQSPSSLSASIGDRVTITCRPSQNIRSFLNWFQHKPGKAPKLLIYAASNLQSGVPSRFSGSGSGTEFTLTIRSLQPEDFATYYCQQSYNTPPTFGQGTKVEIK
Take B3: the binding result in assay [2] was “no binding (tested: 10 μg/mL)”.

The record behind these values is paper PMC6629437 (Cell, 2019).
